Test results published in patent US20080058263A1 (published 2008).
Substitutions are numbered along the chain they refer to.

B1: 61-15 (ligand)
chain: GQNHHEVVKFMDVYQRSYCHPREVCIDVGKEYPDEIEYIFKPSCVPLMRCGGCCNSEGLQCVPTEESNITMQIMRITVPLSQGPKPVTISFANHTSCRCMSKLD
B2: 13-15 (ligand)
chain: GQNHHEVVKFMDVYQRSYCHPIETLVDIFQEYPDEIEYIFKPPCVSVYRCGGCCNSEGLQCVPTEESNITMQIMRITVPLSQGPKPVTISFANHTSCRCMSKLD
B3: 11-13 (ligand)
chain: B2 chain with P43S, S46P, V47L, Y48M, S56D, Q60E
B4: 41-15 (ligand)
chain: B1 chain with G1A, Q2H, N3Y, H4N, H5T, V7I, V8L
B5: 41-13 (ligand)
chain: B1 chain with G1A, Q2H, N3Y, H4N, H5T, V7I, V8L, S56D, Q60E
B6: 43-15 (ligand)
chain: AHYNTEILKFMDVYQRSYCHPREVCIDVGKEYPDEIEYIFKPPCVSVYRCGGCCNSEGLQCVPTEESNITMQIMRITVPLSQGPKPVTISFANHTSCRCMSKLD
B7: 11-15 (ligand)
chain: B2 chain with P43S, S46P, V47L, Y48M
B8: 22-3 (ligand)
chain: AHYNTEILKSIDNEWRKTQCMPREVCIDVGKEFGVATNTFFKPPCVSVYRCGGCCNSEGLQCVPTEESNITMQIMRIKPHQGQHIGEMSFLQHNKCECRPKKD
B9: 82-15 (ligand)
chain: AHYNTEILKFMDVYQRSYCHPIETLVDIFQEFGVATNTFFKPPCVSVYRCGGCCNSEGLQCVPTEESNITMQIMRITVPLSQGPKPVTISFANHTSCRCMSKLD
B10: 72-2 (ligand)
chain: GQNHHEVVKSIDNEWRKTQCMPREVCIDVGKEFGVATNTFFKPPCVSVYRCGGCCNDEGLECMNTSTSYLSKTLFEIKPHQGQHIGEMSFLQHNKCECRPKKD
B11: 72-4 (ligand)
chain: B10 chain with D57S, E61Q
B12: 22-4 (ligand)
chain: B10 chain with G1A, Q2H, N3Y, H4N, H5T, V7I, V8L, D57S, E61Q
B13: 72-6 (ligand)
chain: B10 chain with L91A, Q92N, N94T, K95S, E97R, R99M, P100S, K102L
B14: 72-8 (ligand)
chain: B10 chain with D57S, E61Q, L91A, Q92N, N94T, K95S, E97R, R99M, P100S, K102L
B15: 84-1 (ligand)
chain: AHYNTEILKFMDVYQRSYCHPIETLVDIFQEFGVATNTFFKPSCVPLMRCGGCCNDEGLECVPTEESNITMQIMRIKPHQGQHIGEMSFLQHNKCECRPKKD
B16: 84-5 (ligand)
chain: B15 chain with L90A, Q91N, N93T, K94S, E96R, R98M, P99S, K101L
B17: 84-3 (ligand)
chain: B15 chain with D56S, E60Q
B18: 82-14 (ligand)
chain: AHYNTEILKFMDVYQRSYCHPIETLVDIFQEFGVATNTFFKPPCVSVYRCGGCCNDEGLECMNTSTSYLSKTLFEITVPLSQGPKPVTISFANHTSCRCMSKLD
B19: 82-16 (ligand)
chain: B18 chain with D56S, E60Q
B20: 11-1 (ligand)
chain: GQNHHEVVKFMDVYQRSYCHPIETLVDIFQEYPDEIEYIFKPSCVPLMRCGGCCNDEGLECVPTEESNITMQIMRIKPHQGQHIGEMSFLQHNKCECRPKKDLVFEQKLISEEDLNSAVDHHHHHH
B21: 72-10 (ligand)
chain: GQNHHEVVKSIDNEWRKTQCMPREVCIDVGKEFGVATNTFFKPPCVSVYRCGGCCNDEGLECMNTSTSYLSKTLFEITVPLSQGPKPVTISFLQHNKCECRPKKD
B22: 72-12 (ligand)
chain: B21 chain with D57S, E61Q
B23: 11-3 (ligand)
chain: GQNHHEVVKFMDVYQRSYCHPIETLVDIFQEYPDEIEYIFKPSCVPLMRCGGCCNSEGLQCVPTEESNITMQIMRIKPHQGQHIGEMSFLQHNKCECRPKKD
B24: 11-7 (ligand)
chain: B23 chain with L90A, Q91N, N93T, K94S, E96R, R98M, P99S, K101L
B25: 11-5 (ligand)
chain: B23 chain with S56D, Q60E, L90A, Q91N, N93T, K94S, E96R, R98M, P99S, K101L
B26: 11-9 (ligand)
chain: GQNHHEVVKFMDVYQRSYCHPIETLVDIFQEYPDEIEYIFKPSCVPLMRCGGCCNDEGLECVPTEESNITMQIMRITVPLSQGPKPVTISFLQHNKCECRPKKD
B27: 11-11 (ligand)
chain: B26 chain with D56S, E60Q
B28: 82-11 (ligand)
chain: AHYNTEILKFMDVYQRSYCHPIETLVDIFQEFGVATNTFFKPPCVSVYRCGGCCNSEGLQCVPTEESNITMQIMRITVPLSQGPKPVTISFLQHNKCECRPKKDL
notes: clone entry
B29: 84-11 (ligand)
chain: B28 chain with P43S, S46P, V47L, Y48M
notes: clone entry
B30: 84-9 (ligand)
chain: B28 chain with P43S, S46P, V47L, Y48M, S56D, Q60E
notes: clone entry
B31: 82-13 (ligand)
chain: B28 chain with S56D, Q60E, L92A, Q93N, N95T, K96S, E98R, R100M, P101S, K103L
notes: clone entry

Biological target: T1, VEGFR-1-Fc (UniProt P17948 27-338)
T1 construct: domain: first three Ig domains; expressed in Drosophila S2 cells, purified on Protein A sepharose; also called VEGFR-1-Fc fusion protein; not shown: Fc fragment from the Signal-pIgPlus vector
T1 sequence (P17948 27-338): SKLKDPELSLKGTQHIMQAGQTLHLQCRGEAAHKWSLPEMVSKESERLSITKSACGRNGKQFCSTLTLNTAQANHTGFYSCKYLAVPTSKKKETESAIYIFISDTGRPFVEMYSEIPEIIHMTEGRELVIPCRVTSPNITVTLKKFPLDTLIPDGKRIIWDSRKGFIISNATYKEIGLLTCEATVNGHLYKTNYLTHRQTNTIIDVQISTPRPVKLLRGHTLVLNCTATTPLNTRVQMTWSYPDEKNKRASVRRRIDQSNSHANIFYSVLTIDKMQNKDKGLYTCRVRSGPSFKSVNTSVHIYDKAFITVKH
Assay: receptor-Fc IP
Procedure, shortened: (§1)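 Binding of ligand from sample supernatant measured by pentahistidine-antibody immunoprecipitation. IP mix: PBS with 1.5% BSA, 0.06% Tween 20, 3 μg/ml heparin and 400 ng/ml fusion protein, added 1:2 to sample supernatant.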

Row | Binder | binding result
1 | B1 | no binding
2 | B2 | binds
3 | B3 | binds
4 | B4 | no binding
5 | B5 | no binding
6 | B6 | no binding
7 | B7 | binds
8 | B8 | no binding
9 | B9 | no binding
10 | B10 | no binding
11 | B11 | no binding
12 | B12 | no binding
13 | B13 | no binding
14 | B14 | no binding
15 | B15 | binds
16 | B16 | binds

Row | Binder | binding result
17 | B17 | binds
18 | B18 | no binding
19 | B19 | no binding
20 | B20 | binds
21 | B21 | no binding
22 | B22 | no binding
23 | B23 | binds
24 | B24 | binds
25 | B25 | binds
26 | B26 | binds
27 | B27 | binds
28 | B28 | binds
29 | B29 | binds
30 | B30 | binds
31 | B31 | binds

Biological target: T2, VEGFR-2-Fc (UniProt P35968 20-322)
T2 construct: domain: first 3 Ig domains; conditioned supernatant of 293T cells; also called VEGFR-2-Fc fusion protein; not shown: Fc fragment of the pIg vector
T2 sequence (P35968 20-322): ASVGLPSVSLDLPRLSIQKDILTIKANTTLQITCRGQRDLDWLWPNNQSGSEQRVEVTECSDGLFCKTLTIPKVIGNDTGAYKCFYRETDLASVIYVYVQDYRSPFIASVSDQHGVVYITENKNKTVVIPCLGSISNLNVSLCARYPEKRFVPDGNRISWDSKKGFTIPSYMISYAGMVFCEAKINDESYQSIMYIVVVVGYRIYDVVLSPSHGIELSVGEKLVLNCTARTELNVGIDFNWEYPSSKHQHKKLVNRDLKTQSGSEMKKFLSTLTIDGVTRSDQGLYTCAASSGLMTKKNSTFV
Assay: receptor-Fc IP
Procedure, shortened: as §1

Row | Binder | binding result
32 | B1 | no binding
33 | B2 | no binding
34 | B3 | no binding
35 | B4 | no binding
36 | B5 | no binding
37 | B6 | no binding
38 | B7 | binds
39 | B8 | no binding
40 | B9 | binds
41 | B10 | binds
42 | B11 | binds
43 | B12 | binds
44 | B13 | no binding
45 | B14 | binds
46 | B15 | no binding
47 | B16 | no binding

Row | Binder | binding result
48 | B17 | binds
49 | B18 | no binding
50 | B19 | no binding
51 | B20 | binds
52 | B21 | binds
53 | B22 | binds
54 | B23 | binds
55 | B24 | binds
56 | B25 | binds
57 | B26 | no binding
58 | B27 | binds
59 | B28 | binds
60 | B29 | binds
61 | B30 | binds
62 | B31 | no binding

Biological target: T3, VEGFR-3-Fc (UniProt P35916 25-328)
T3 construct: domain: first three Ig domains; conditioned supernatant of 293T cells; also called VEGFR-3-Fc fusion protein; not shown: Fc fragment of the pIg vector
T3 sequence (looked up): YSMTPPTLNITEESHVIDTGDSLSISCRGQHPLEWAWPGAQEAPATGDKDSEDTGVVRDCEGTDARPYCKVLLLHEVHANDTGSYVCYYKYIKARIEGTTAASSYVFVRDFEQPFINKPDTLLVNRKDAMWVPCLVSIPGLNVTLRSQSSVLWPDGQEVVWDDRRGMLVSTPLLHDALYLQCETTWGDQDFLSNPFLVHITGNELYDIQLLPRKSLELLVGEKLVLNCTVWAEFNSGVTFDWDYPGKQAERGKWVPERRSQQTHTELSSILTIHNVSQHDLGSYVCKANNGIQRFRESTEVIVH
Assay: receptor-Fc IP
Procedure, shortened: as §1

Row | Binder | binding result
63 | B1 | no binding
64 | B2 | no binding
65 | B3 | no binding
66 | B4 | no binding
67 | B5 | no binding
68 | B6 | no binding
69 | B7 | no binding
70 | B8 | binds
71 | B9 | binds
72 | B10 | binds
73 | B11 | binds
74 | B12 | binds
75 | B13 | binds
76 | B14 | binds
77 | B15 | no binding
78 | B16 | no binding

Row | Binder | binding result
79 | B17 | no binding
80 | B18 | binds
81 | B19 | binds
82 | B20 | no binding
83 | B21 | binds
84 | B22 | binds
85 | B23 | no binding
86 | B24 | no binding
87 | B25 | no binding
88 | B26 | no binding
89 | B27 | no binding
90 | B28 | binds
91 | B29 | binds
92 | B30 | binds
93 | B31 | binds
